Consider one molecule from publication PMC10147923, “Pain-causing stinging nettle toxins target TMEM233 to modulate NaV1.7 function” (Nature Communications, 2023).

Several values for one entry are separate records, joined by “and”; a condition that tells them apart may be missing. Equal values may be shown once.

Test [1] has as its system hNaV1.7/TMEM233. The experiment in a line: Persistent current, CHO hNaV1.7/TMEM233. The test is classed as cell-based, human. Particulars: Supplementary Fig 1e.
The target in test [2] is NaV1.7 (Homo sapiens, UniProt Q15858). Nature of the test: Effect of TMEM233 co-expression on use-dependence. It counts as cell-based. Particulars: Fig 6l; for Use-dependence, predicted (LS) mean: n = 6. As for the experimental part: Use-dependence experiments were performed on the Patchliner Quattro (Nanion Technologies GmbH, Munich, Germany) using an EPC 10 USB Quadro Patch Clamp Amplifier (HEKA Elektronik GmbH, Lambrecht/Pfalz, Germany) and PatchControlHT 2.01.30 and PatchMaster v2x90.4 beta softwares (HEKA Elektronik GmbH, Lambrecht/Pfalz, Germany). Cells at approximately 70–80% confluency were harvested from T75 flasks using Accutase (Thermofisher, Massachusetts, USA) at room temperature for 2–5 min and resuspended in high-glucose Dulbecco’s Modified Eagle Medium (DMEM) (Sigma-Aldrich, New South Wales, Australia) with 15 mM HEPES (Sigma-Aldrich, NSW, Australia) prior to recovery in the cell hotel of the Patchliner for 10 min. ECS contained (in mM): NaCl 140, KCl 4, CaCl2 2, MgCl2 1, HEPES 10, glucose 5. The pH was adjusted to 7.4 with NaOH, and the osmolarity was 298 mOsm. ICS contained (in mM): CsCl 50, NaCl 10, CsF 60, EGTA 20, HEPES 10. The pH was adjusted to 7.2 with CsOH, and the osmolarity was 285 mOsm. A seal enhancer was used containing (in mM): NaCl 80, KCl 3, MgCl2 10, CaCl2 35, HEPES Na^+ salt 10. The pH was adjusted to 7.4 with HCl, and the osmolarity was 298 mOsm. The seal enhancer was washed off before starting the experiments. HEK293 cells stably expressing hNaV1.7/ β1 or hNaV1.7/ β1/C-HA TMEM233 were used. Consecutive series of 30 depolarizing 20 ms pulses from −90 mV to −20 mV were applied with frequencies of 1 Hz, 2 Hz, 5 Hz, 10 Hz, and 20 Hz. After the experiment ExTxA (100 nM) was applied to confirm TMEM233 expression. The amplitude of the test current was normalized to the current induced by the first pulse of its series, with the last test pulse plotted as a function of frequency for statistical analysis.
Sequence of NaV1.7 (Q15858 whole entry): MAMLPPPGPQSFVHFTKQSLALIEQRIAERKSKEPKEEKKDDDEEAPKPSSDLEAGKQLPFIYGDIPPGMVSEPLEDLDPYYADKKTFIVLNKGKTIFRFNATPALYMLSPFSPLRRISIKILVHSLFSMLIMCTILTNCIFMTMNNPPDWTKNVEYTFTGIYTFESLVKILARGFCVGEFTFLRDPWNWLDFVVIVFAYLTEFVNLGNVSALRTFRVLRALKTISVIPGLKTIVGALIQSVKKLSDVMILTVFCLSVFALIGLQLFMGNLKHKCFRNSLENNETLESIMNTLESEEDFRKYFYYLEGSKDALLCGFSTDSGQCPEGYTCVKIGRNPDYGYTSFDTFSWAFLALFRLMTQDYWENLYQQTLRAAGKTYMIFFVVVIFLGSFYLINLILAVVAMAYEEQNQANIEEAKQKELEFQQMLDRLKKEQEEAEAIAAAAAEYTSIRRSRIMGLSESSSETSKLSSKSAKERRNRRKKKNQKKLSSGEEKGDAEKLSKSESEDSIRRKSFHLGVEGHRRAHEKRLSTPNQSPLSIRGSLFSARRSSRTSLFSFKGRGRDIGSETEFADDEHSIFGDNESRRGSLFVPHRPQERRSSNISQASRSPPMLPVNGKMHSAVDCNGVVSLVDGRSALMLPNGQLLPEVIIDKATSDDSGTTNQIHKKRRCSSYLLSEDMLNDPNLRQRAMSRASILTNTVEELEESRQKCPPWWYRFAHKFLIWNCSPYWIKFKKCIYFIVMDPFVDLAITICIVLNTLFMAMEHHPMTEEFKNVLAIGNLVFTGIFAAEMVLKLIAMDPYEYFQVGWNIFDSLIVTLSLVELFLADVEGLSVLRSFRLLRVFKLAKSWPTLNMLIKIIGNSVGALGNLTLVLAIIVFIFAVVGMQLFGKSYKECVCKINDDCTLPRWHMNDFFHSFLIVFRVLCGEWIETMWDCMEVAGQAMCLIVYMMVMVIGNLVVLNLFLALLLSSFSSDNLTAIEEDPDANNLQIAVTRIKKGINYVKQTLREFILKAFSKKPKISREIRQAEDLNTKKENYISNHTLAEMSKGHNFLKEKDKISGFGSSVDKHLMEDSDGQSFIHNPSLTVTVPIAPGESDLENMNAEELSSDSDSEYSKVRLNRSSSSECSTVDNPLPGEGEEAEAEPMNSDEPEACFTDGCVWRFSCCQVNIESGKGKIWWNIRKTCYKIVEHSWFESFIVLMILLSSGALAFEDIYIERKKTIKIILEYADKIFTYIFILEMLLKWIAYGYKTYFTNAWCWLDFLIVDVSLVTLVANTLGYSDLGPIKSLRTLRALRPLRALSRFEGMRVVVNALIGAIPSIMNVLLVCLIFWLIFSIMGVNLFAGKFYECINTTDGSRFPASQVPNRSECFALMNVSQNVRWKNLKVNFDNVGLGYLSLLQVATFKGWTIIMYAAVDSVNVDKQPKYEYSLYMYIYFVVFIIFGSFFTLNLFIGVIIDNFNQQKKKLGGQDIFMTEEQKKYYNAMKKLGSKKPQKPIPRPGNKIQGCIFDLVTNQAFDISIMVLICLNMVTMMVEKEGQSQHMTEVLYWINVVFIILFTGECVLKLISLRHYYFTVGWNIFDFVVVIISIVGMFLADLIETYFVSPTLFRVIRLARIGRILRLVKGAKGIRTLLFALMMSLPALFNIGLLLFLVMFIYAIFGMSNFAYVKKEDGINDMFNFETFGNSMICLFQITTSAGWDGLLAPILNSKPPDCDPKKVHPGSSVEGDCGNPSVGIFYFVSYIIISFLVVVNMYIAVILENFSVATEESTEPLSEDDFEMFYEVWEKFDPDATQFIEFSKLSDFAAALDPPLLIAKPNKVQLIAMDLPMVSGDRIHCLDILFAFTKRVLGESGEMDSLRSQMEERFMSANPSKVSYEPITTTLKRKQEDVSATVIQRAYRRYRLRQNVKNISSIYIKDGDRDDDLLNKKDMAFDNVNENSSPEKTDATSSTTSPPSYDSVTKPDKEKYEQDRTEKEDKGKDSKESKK
Sequence of NaV1.7 (Q07699 19-218, further chain): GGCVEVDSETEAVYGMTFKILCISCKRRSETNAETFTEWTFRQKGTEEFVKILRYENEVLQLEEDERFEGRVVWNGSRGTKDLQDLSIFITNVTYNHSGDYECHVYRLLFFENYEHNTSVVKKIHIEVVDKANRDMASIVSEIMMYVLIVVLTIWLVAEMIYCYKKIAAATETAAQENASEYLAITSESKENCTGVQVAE

B1: TMEM233 (protein)
chain: MSQYAPSPDFKRALDSSPEANTEDDKTEEDVPMPKNYLWLTIVSCFCPAYPINIVALVFSIMSLNSYNDGDYEGARRLGRNAKWVAIASIIIGLLIIGISCAVHFTRNA
B1: the “Persistent Current, mean” value in test [1] (TMEM233 column, toxin not named, mean of n = 16, Control mean -0.0001975, n = 6) is -2.01. The “Persistent Current, individual values” in test [1] (TMEM233 column, toxin not named, single replicates) was -0.5607 and -1.881 and -2.243 and -3.609 and -4.773 and -1.301 and -2.129 and -2.32 and -2.174 and -2.568 and -0.4229 and -2.1714 and -2.227 and -1.642. The “Persistent Current, difference between means (TMEM233 - Control) ± SEM” value in test [1] (unpaired t test P = 0.0003, 95% CI -2.968 to -1.051) was -2.010 ± 0.4595. The “Use-dependence, predicted (LS) mean diff. (NaV1.7 - NaV1.7 + TMEM233)” value in test [2] (1 Hz, Šídák's adjusted P >0.9999, 95% CI -0.1024 to 0.1060) was 0.001783; in test [2] (2 Hz, Šídák's adjusted P 0.9266, 95% CI -0.07138 to 0.1370) it was 0.0328; in test [2] (5 Hz, Šídák's adjusted P 0.8365, 95% CI -0.06345 to 0.1449) it was 0.04074; in test [2] (10 Hz, Šídák's adjusted P 0.4449, 95% CI -0.04066 to 0.1677), 0.06353; in test [2] (20 Hz, Šídák's adjusted P 0.0161 (*), 95% CI 0.01628 to 0.2247) it was 0.1205. In addition, the “Use-dependence, predicted (LS) mean” value is recorded as 0.9843 in test [2] (NaV1.7 + TMEM233, 1 Hz, NaV1.7 0.9861, n = 8); 0.9321 in test [2] (NaV1.7 + TMEM233, 2 Hz, NaV1.7 0.9649, n = 8); 0.8928 in test [2] (NaV1.7 + TMEM233, 5 Hz, NaV1.7 0.9335, n = 8); 0.8298 in test [2] (NaV1.7 + TMEM233, 10 Hz, NaV1.7 0.8933, n = 8); 0.6842 in test [2] (NaV1.7 + TMEM233, 20 Hz, NaV1.7 0.8046, n = 8).
